The values that follow come from paper PMC5617326 (ACS Catalysis, 2017).

For orientation: stoichiometry N means a count of units in the complex or per binding partner.

Series [1] concerns the molecule itself. Put plainly: crystal structure; bLinS apo (25% w/v PEG3350) and co-crystallised with 2 mM FGPP (Morpheus D7, pH 7.5); space group I4, two molecules in the asymmetric unit.
Series [2] concerns the molecule itself. Put plainly: crystal structure; bCinS co-crystallised with 2 mM FNPP (Morpheus II A4, pH 6.5), also soaked with 2 mM FGPP; space group P1, two molecules in the asymmetric unit; interface analysed with PISA.

B1: linalool synthase from Streptomyces clavuligerus (enzyme, Streptomyces clavuligerus ATCC 27064, UniProt D5SL78 1-329, looked up)
chain: MQEFEFAVPAPSRVSPDLARARARHLDWVHAMDLVRGEEARRRYEFSCVADIGAYGYPHATGADLDLCVDVLGWTFLFDDQFDAGDGRERDALAVCAELTDLLWKGTAATAASPPIVVAFSDCWERMRAGMSDAWRRRTVHEWVDYLAGWPTKLADRAHGAVLDPAAHLRARHRTICCRPLFALAERVGGYEVPRRAWHSSRLDGMRFTTSDAVIGMNELHSFEKDRAQGHANLVLSLVHHGGLTGPEAVTRVCDLVQGSIESFLRLRSGLPELGRALGVEGAVLDRYADALSAFCRGYHDWGRGASRYTTRDHPGDLGLENLVARSSG
Turning to B1, the binding result in series [1] is reported as “binds”.

B2: 1,8-cineole synthase from Streptomyces clavuligerus (enzyme, Streptomyces clavuligerus ATCC 27064, UniProt B5GMG2 1-330, looked up)
chain: MPAGHEEFDIPFPSRVNPFHARAEDRHVAWMRAMGLITGDAAEATYRRWSPAKVGARWFYLAQGEDLDLGCDIFGWFFAYDDHFDGPTGTDPRQTAAFVNRTVAMLDPRADPTGEHPLNIAFHDLWQRESAPMSPLWQRRAVDHWTQYLTAHITEATNRTRHTSPTIADYLELRHRTGFMPPLLDLIERVWRAEIPAPVYTTPEVQTLLHTTNQNINIVNDVLSLEKEEAHGDPHNLVLVIQHERQSTRQQALATARRMIDEWTDTFIRTEPRLPALCGRLGIPLADRTSLYTAVEGMRAAIRGNYDWCAETNRYAVHRPTGTGRATTPW
In the case of B2, the “stoichiometry N” value in series [2] was 2.
